The source of these data is paper PMC7719400.

Test [1] has as its target ORFV125 lacking the 30 C-terminal residues (orf virus). Put plainly: SEC. Background: Size exclusion chromatography separates by hydrodynamic size, large species first.
For test [2] the target is unchanged. Put plainly: ITC.

The stoichiometry N is the number of molecules, sites or subunits per partner or assembly. In turn, “ORFV125 lacking the 30 C-terminal residues (domain or fragment)” displayed a stoichiometry N in test [1] of 2.

The Kd is a measure of binding affinity in units of concentration. A high value points to a looser complex. On to VPQDASTKKLSECLKRIGDELDSNMELQ [Bax BH3 motif peptide (human, 50-77, 28-mer)], for which the Kd in test [2] came to 0.682 µM.

In test [2], EEQWAREIGAQLRRMADDLNAQYERR [Puma BH3 motif peptide (human, 130-155)] had a Kd of 1.75 µM.

For the molecule PSSTMGQVGRQLAIIGDDINRRYDSE [Bak BH3 motif peptide (human, 67-92)], the Kd in test [2] is 5.8 µM. This Kd lies about 3.3-fold higher than the previous one.
